Target: the molecule itself
Assay: single-molecule fluorescence fluctuation spectroscopy (brightness B parameter, time-traces, intensity histograms); GFP-tagged protein freely diffusing in the cell-free expression mixture on a confocal microscope, 488-nm laser; dilution series of the DNA template giving 0 to about 320 nM protein; mutants compared at 150 nM; samples diluted 10 times in buffer A

Row | Protein | average brightness B (> 150 nM) relative to monomeric sfGFP [fold over monomeric GFP]
1 | GFP-tagged MyD88 death domain (residues 1-117, includes part of the intermediate domain) (domain or fragment, human, UniProt Q99836 1-117, looked up, MyD88 death domain with the crucial part of the intermediate domain, residues 1-117; also called DD; death domain alone; source: in vitro translated in Leishmania tarentolae extract (LTE), measured without purification; not shown: GFP, N-terminal, kept) MAAGGPGAGSAAPVSSTSSLPLAALNMRVRRRLSLFLNVRTQVAADWTALAEEMDFEYLEIRQLETQADPTGRLLDAWQGRPGASVGRLLELLTKLGRDDVLLELGPSIEEDCQKYI | ~8
2 | GFP-tagged MyD88 TIR domain (residues 159-296) (domain or fragment, human, UniProt Q99836 159-296, looked up, MyD88 TIR domain, residues 159-296; also called TIR domain alone; source: in vitro translated in Leishmania tarentolae extract (LTE), measured without purification; not shown: GFP, N-terminal, kept) ERFDAFICYCPSDIQFVQEMIRQLEQTNYRLKLCVSDRDVLPGTCVWSIASELIEKRCRRMVVVVSDDYLQSKECDFQTKFALSLSPGAHQKRLIPIKYKAMKKEFPSILRFITVCDYTNPCTKSWFWTRLAKALSLP | ~4

— article PMC6304784, “Pathological mutations differentially affect the self-assembly and polymerisation of the innate immune system signalling adaptor molecule MyD88” (BMC Biology, 2018)
